Square brackets hold non-standard residues; d marks the D form. Nle = CCCC[C@H](N)C(=O)O
Columns and labels:
[1] = target: T1, hMC4-R (human, UniProt P32245 1-332); test: assay not described for this value
T1 construct: whole, on cells; Membrane preparation; also called MCR-4

[2] = target: T2, MC1-R of B-16 mouse melanoma cells (mouse, UniProt Q01727 1-315); test: assay not described for this value
T2 construct: whole, on cells; Membrane preparation; also called MCR-1
T2 sequence (Q01727 whole entry): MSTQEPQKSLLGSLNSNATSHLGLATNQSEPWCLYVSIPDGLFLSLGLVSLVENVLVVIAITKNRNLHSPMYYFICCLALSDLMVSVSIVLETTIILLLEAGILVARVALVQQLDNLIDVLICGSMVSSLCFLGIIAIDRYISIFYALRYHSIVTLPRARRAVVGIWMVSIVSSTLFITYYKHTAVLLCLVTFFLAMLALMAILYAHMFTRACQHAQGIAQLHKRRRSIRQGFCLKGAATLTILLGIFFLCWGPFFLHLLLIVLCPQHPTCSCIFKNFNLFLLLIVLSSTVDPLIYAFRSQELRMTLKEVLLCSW

T1 sequence (P32245 whole entry): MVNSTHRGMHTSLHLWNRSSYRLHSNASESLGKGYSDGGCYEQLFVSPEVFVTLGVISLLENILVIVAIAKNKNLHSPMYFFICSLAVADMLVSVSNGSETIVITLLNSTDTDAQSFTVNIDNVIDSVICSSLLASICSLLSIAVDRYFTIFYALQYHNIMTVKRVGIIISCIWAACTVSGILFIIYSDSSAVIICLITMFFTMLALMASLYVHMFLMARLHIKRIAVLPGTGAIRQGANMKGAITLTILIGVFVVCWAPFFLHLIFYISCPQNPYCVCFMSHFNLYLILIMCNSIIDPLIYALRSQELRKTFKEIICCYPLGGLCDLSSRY

Ki [1]: 2000 nM
Ki [2]: 100 nM
B1: Ac-Nle-Ala-His-D-Phe-Arg-Trp-NH2 (peptide)
peptide: Ac-[Nle]AH[dF]RW-NH2
notes: Linear parent peptide, not complexed to a metal; also called parent melanocortin peptide
